Results on 2 molecules are retold here after US20250361299A1 (ZHEJIANG SHIMAI PHARMACEUTICAL, published 2025).

In this experiment the target is T1, Recombinant human EGFR (human, UniProt P00533 25-645).
T1 construct: Bought protein coated on ELISA plates (100 ng per well); also called human antigen EGFR
Briefly: ELISA on coated human EGFR, antibody not treated with uPA. The method, then:
To determine the binding affinity of proBiTEs to CD3 and EGFR, ELISA was performed according to standard protocols. Briefly, human antigen CD3 and EGFR were coated on Corning EIA/RIA high-binding 96-well plates (Corning Inc.) at 100 ng per well overnight at 4° C. and blocked with 3% nonfat milk in PBS (pH7.4). For cleavage with urokinase (uPA), 30 μg antibodies were mixed with or without 0.3 μg recombinant human uPA (50 μg/mL) (Sino Biological) in PBS (pH7.4) and incubated at room temperature for 4 hour. Then the mixture with or without uPA was diluted in a fivefold gradient and incubated at room temperature for 2 h. The plates were washed with PBS containing 1% nonfat milk. Bound antibodies were detected by HRP-conjugated streptavidin (Sigma). The assay was developed at room temperature with TMB substrate (Solarbio) and monitored at 450 nm with a microplate reader. The half-maximal binding (EC₅₀) was calculated by fitting the data to the Langmuir adsorption isotherm.

B1: 1.6.1M-Pa proBiTE (bispecific antibody)
heavy: QDGNEEMGGGSQDGNEEMGGIGGGSGGGGSGLSGRSDNHGGGGSEVQLVESGGGLVQPGGSLRLSCAASGFTFNTYAMNWVRQAPGKGLEWVARIRSKYNNYATYYADSVKGRFTISRDDSKNTLYLQMNSLRAEDTAVYYCARHGNFGSSYVSYFAYWGQGTTVTVSSASTKGPSVFPLAPSSKSTSGGTAALGCLVKDYFPEPVTVSWNSGALTSGVHTFPAVLQSSGLYSLSSVVTVPSSSLGTQTYICNVNHKPSNTKVDKKVEPKSCPPCPAPEAAGAPSVFLFPPKPKDTLMISRTPEVTCVVVDVSHEDPEVKFNWYVDGVEVHNAKTKPREEQYNSTYRVVSVLTVLHQDWLNGKEYKCKVSNKALPAPIEKTISKAKGQPREPQVYTLPPSRDELTKNQVSLLCLVKGFYPSDIAVEWESNGQPENNYKTTPPVLDSDGSFFLHSKLTVDKSRWQQGNVFSCSVMHEALHNHYTQKSLSLSPGK
light: QVQLQESGPGLVKPSETLSLTCTVSGGSVSSGDYYWTWIRQSPGKGLEWIGHIYYSGNTNYNPSLKSRLTISIDTSKTQFSLKLSSVTAADTAIYYCVRDRVTGAFDIWGQGTMVTVSSGGGGSGGGGSGGGGSGGGGSDIQMTQSPSSLSASVGDRVTITCQASQDISNYLNWYQQKPGKAPKLLIYDASNLETGVPSRFSGSGSGTDFTFTISSLQPEDIATYFCQHFDHLPLAFGGGTKVEIKGGGGSGGGGSGGGGSGGGGSEIVVTQSPATLSVSPGERATLSCRSSTGAVTTSNYANWVQQKPGQAPRGLIGGANKRAPGVPARFSGSLSGDEATLTISSLQSEDFAVYYCALWYSNLWVFGQGTKLEIKRTVAAPSVFIFPPSDEQLKSGTASVVCLLNNFYPREAKVQWKVDNALQSGNSQESVTEQDSKDSTYSLSSTLTLSKADYEKHKVYACEVTHQGLSSPVTKSFNRGECPPCPAPEAAGAPSVFLFPPKPKDTLMISRTPEVTCVVVDVSHEDPEVKFNWYVDGVEVHNAKTKPREEQYNSTYRVVSVLTVLHQDWLNGKEYKCKVSNKALPAPIEKTISKAKGQPREPQVYTLPPSRDELTKNQVSLLCLVKGFYPSDIAVEWESNGQPENNYKTTPPVLDSDGSFFLHSKLTVDKSRWQQGNVFSCSVMHEALHNHYTQKSLSLSPGK
notes: Intact, not treated with uPA; As 1.6.1M proBiTE but with a panitumumab anti-EGFR scFv in the light chain
As for B1, the binding result is listed as “binds”.

B2: 1.6.1M-2-1-Pa proBiTE (bispecific antibody)
heavy: QDGNEEMGGGSQDGNEEMGGIGGGSGGGGSGLSGRSDNHGGLSGRSDNHGGSEVQLVESGGGLVQPGGSLRLSCAASGFTFNTYAMNWVRQAPGKGLEWVARIRSKYNNYATYYADSVKGRFTISRDDSKNTLYLQMNSLRAEDTAVYYCARHGNFGSSYVSYFAYWGQGTTVTVSSASTKGPSVFPLAPSSKSTSGGTAALGCLVKDYFPEPVTVSWNSGALTSGVHTFPAVLQSSGLYSLSSVVTVPSSSLGTQTYICNVNHKPSNTKVDKKVEPKSCPPCPAPEAAGAPSVFLFPPKPKDTLMISRTPEVTCVVVDVSHEDPEVKFNWYVDGVEVHNAKTKPREEQYNSTYRVVSVLTVLHQDWLNGKEYKCKVSNKALPAPIEKTISKAKGQPREPQVYTLPPSRDELTKNQVSLLCLVKGFYPSDIAVEWESNGQPENNYKTTPPVLDSDGSFFLHSKLTVDKSRWQQGNVFSCSVMHEALHNHYTQKSLSLSPGK
light: B1 light
notes: Intact, not treated with uPA
Regarding B2, the binding result is listed as “binds”.
